Each block holds one binder with its values, some of them ahead of it.
Tests used:
[1] = target: T1, StOFOR2 a-subunit (STK_24350) (Sulfolobus tokodaii, UniProt Q96XT2 1-628); test: crystal structure; StOFOR2 ligand-free (2.1 Å) and soaked with 50 mM pyruvate (2.2 Å); sitting drop, 20 °C, 0.7 M ammonium tartrate dibasic, 0.1 M Tris-HCl pH 8.5; one protomer in the asymmetric unit; details: both partners purified
T1 construct: a-subunit of 2-oxoacid:ferredoxin oxidoreductase StOFOR2, STK_24350, Sulfolobus tokodaii; gene amplified from genomic DNA with primers from the start codon to the stop codon; domains III (1a-228a), I (228a-500a), II (500a-627/628a); stk_23000 in pOFORAB was replaced with stk_24350; No tag is mentioned; A selenomethionine-labelled form (E. coli B834 (DE3)) was used for phasing only; also called …
T1 sequence (looked up): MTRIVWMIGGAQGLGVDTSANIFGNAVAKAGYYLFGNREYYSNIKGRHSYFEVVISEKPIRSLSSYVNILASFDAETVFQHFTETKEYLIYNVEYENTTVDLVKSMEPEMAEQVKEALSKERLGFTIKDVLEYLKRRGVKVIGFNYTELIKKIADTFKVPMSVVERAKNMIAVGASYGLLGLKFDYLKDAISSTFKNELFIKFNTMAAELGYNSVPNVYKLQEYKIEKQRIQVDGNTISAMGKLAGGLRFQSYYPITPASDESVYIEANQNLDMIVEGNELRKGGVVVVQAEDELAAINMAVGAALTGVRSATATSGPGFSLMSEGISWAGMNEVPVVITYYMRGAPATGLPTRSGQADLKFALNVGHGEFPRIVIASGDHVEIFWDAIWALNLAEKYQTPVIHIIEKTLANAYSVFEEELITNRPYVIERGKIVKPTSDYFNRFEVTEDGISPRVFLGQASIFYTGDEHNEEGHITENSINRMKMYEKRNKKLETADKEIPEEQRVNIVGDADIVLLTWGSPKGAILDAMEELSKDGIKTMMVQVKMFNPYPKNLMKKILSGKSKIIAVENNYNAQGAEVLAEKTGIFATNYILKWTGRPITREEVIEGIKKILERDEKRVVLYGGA

[2] = target: the molecule itself; test: as above
[3] = target: the molecule itself; test: crystal structure; StOFOR1 co-crystallised with 50 mM 2-oxobutyrate and 1 mM CoA; sitting drop, 25 °C, 15% PEG3350, 0.1 M Tris-HCl pH 8.5, 0.1 M NaBr; 2.5 Å; two protomers in the asymmetric unit

binding result [1]: binds
B1: StOFOR2 b-subunit (STK_24330) (natural protein, Sulfolobus tokodaii, UniProt Q96XT4 1-304, looked up)
chain: MVERKPVFVDWCPGCGDFGILRAEEMAIRELGINPKSVVIVSGIGCSGKIPHFMNLPISGVHTLHGRSIAFATGIKLSNPSLEVIVNVGDGDGLGIGMGHFVHLGRRNIDIAVLVHNNGVYGLTKGQASPTLHRGEKTKSLPKPNIMDAVNPLAVALAAGYTFVARGYAYDVMHLKELIKKAILHKGSALVDILQPCPTYNDINTKEWYDKRVYKLDNVPGWDPVVRKEEEAQKKFEQAIMKSYEWGEKIPIGIFYQNELVPTFEDRLTSNIPNYREYYPAKQQIEINGISTTKIDELIKAKRI
notes: b-subunit of 2-oxoacid:ferredoxin oxidoreductase StOFOR2, STK_24330, Sulfolobus tokodaii; gene amplified from genomic DNA with primers from the start codon to the stop codon; domain VI (1b-305b); stk_22980 in pOFORAB was replaced with stk_24330; No tag is mentioned; Holds the [4Fe-4S] cluster; also called b-subunit of StOFOR2; source: E. coli C43 (DE3), expressed with the a-subunit, purified …

B2: StOFOR2 protomer (heterodimer of a-subunit STK_24350 and b-subunit STK_24330) (complex, Sulfolobus tokodaii)
chain 1: T1 sequence (looked up)
chain 2: B1 chain
notes: a-subunit of StOFOR2, STK_24350, Sulfolobus tokodaii; primers from the start codon to the stop codon; as the chain of m3; b-subunit of StOFOR2, STK_24330, Sulfolobus tokodaii; as the chain of m4; One protomer is the pair of a- and b-subunits that holds one TPP; Two crystallographically identical protomers form the (ab)2 enzyme; Cofactors: TPP, Mg2+, [4Fe-4S]; also called STK_24350/STK_24330; …
stoichiometry N [2]: 2

B3: StOFOR1 protomer (heterodimer of a-subunit STK_23000 and b-subunit STK_22980) (complex, Sulfolobus tokodaii strain 7)
chain 1: MRLSWVIGGAQGTGIDTAANIFGNAVASAGYYIYGNREYYSNIKGRHSYFSLTISDKRVRSNTQKIDILVSFDAETVFQHFYDVKDILIYNKAVETTKIDAVQSMEPELAERIKDFLTKQGYETTVKGALEYASKNNVTLIPVNYDEIAKKVADEMKVPLSVTERVKNIVGITISYKLLGLDVNYLIEAINSTFKQDLYRKMNELAVKDSYDIVESRYNLKPSSKERRRFWLDGNTAVAIGKIYGGVRFQSYYPITPASDESVYIEAHQDVLMEDPITGDKKKGTIVVVQAEDELAAINMAIGAALTGVRAATATSGPGFSLMVEGLGWAGMNEVPVVITYYIRGGPSTGLPTRTAQSDLIFPIFAGHGEFPKIVLASGDHAEAFKDAIWALNLAEKYQTPVIHLVEKTLANSYSTIPYEELELDKLKAERGKIVESGDISYKRFKFTEDGISPRAFLGKATMYYTGDEHNEEGHISEDVVNRTMMYEKRMKKLEVADKEIPEESRVKIYGDLNSRNLIITWGSPTGVLRDILEESNFDFTLLQIRMFSPFPKNLVSKLMEGRDKIITVEGNYLAQTSLLVKMYTGKDVTNSILKWNGRPFLRDELEEALIKVIKDGEKRVVLNGGI
chain 2: PQWNDWCPGCGNFGILNAEQQAIVELGVDTKNVVVVSGIGCSGKIPHFFRTPISGVHTLHGRAIAFATGIKLSNPDLVVIVNGGDGDLLGIGAGHFVAAGRRNVDMVVILHDNGVYGLTKGQASPTLKRGEKPKSLPRPNINDAVNPIALAISSGYTFVARGYAYDVKHLKELIKSAIKHKGLALIDVLQPCPTYNDINTKEWYDKRIYKLDTLPDWDPVVKKPEEVNEKIKRAIDKSLEWGDRIPIGIFYQNELVPSYEERIKANSPAYLDYTPAKQLIEKEGKLTTIIDPLLKEREVD
notes: a-subunit of StOFOR1, STK_23000, Sulfolobus tokodaii strain 7, 70 kDa; as the chain of m1; b-subunit of StOFOR1, STK_22980, Sulfolobus tokodaii strain 7, 34 kDa; as the chain of m2; One protomer is the pair of a- and b-subunits that holds one TPP; Two protomers form the (ab)2 enzyme; Cofactors: TPP, Mg2+, [4Fe-4S]; also called STK_23000/STK_22980; source: E. coli C43 (DE3), both subunits …
stoichiometry N [3]: 2

— publication PMC5020499, “Crystal structures of archaeal 2-oxoacid:ferredoxin oxidoreductases from Sulfolobus tokodaii” (Scientific Reports, 2016)
